The source of these data is paper PMC4928677.

In this test the target is GST-Cks2 (Xenopus laevis Cks2α, wild type) (Xenopus laevis) (UniProt Q91879). The test can be described thus: pull-down.
UniProt Q91879, sequence (Q91879 whole entry): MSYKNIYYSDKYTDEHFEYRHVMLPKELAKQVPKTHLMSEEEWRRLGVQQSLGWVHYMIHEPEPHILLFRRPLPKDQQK

On to “Hyperphosphorylated Wee1A (Flag-Wee1A-WT phosphorylated in vitro by cyclin B1-Cdk1) (from UniProt Q8AYK6 1-571) (natural protein)”, for which the EC50 was 120 nM. The same measure for “Hypophosphorylated Wee1A (Flag-Wee1A-WT incubated with cyclin B1-Cdk1 without ATP) (from UniProt Q8AYK6 1-571) (natural protein)”: 526 nM.
